Results on 10 molecules are retold here after paper PMC9348755 (Science (New York, N.y.), 2022).

First the molecules themselves.
T1: SARS-CoV-2 S fusion peptide K811[…]825 (SARS-CoV-2)
T1 construct: source: synthetic peptide
T1 chain: KPSKRSFIEDLLFNK

T2: 229E S protein (commercially available, recombinant) (human coronavirus 229E, strain of …)
T2 chain: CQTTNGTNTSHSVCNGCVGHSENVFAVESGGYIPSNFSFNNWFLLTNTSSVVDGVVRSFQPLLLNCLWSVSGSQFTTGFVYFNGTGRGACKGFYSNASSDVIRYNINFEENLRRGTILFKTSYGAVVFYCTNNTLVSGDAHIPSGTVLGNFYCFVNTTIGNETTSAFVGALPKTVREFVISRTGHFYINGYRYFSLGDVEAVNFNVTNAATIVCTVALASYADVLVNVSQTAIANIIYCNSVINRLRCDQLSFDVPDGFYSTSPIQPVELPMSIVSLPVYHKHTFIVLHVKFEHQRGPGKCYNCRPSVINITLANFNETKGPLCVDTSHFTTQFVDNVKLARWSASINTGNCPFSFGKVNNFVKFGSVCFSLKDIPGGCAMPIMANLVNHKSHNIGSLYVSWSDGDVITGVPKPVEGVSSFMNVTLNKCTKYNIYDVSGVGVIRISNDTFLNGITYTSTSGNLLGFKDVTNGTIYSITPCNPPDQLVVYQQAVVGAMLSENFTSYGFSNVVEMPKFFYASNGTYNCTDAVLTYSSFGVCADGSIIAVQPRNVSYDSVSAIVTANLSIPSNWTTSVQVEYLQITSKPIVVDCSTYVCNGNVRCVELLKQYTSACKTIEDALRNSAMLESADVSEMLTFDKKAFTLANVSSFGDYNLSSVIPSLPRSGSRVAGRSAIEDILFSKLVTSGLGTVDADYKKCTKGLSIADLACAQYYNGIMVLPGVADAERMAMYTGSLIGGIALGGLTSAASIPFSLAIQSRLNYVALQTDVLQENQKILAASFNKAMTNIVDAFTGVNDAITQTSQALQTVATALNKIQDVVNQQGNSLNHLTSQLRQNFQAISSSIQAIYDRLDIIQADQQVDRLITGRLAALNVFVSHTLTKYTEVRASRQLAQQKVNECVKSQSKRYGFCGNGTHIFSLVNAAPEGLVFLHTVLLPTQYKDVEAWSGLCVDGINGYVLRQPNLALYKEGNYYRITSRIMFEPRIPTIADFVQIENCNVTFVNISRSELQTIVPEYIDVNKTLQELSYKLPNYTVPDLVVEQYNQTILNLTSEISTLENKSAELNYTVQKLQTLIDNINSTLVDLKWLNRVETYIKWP

B1: C77G12 Fab (Fab, V domains shown)
VH: EVQLVESGGGVVQPGRSLRISCAVSGFTFGSYAMHWVRQAPGKGLEWVGVMSSDGHNEYYADSVKGRFTISRDNSRNKLYLEMNNLRVDDTAVFYCARGSDYVDDSPPLHYWGQGTLVTVSS
VL: DIQLTQSPSSLSASIGDRVTITCRASQDIANKLAWFQQAPGKAPKSLIYAASRLQSGVPSQFSGSGSGTDFTLTIESLQAGDFATYFCQQYDSFPFTFGPGTKVDVK
B2: VN01H1 Fab (Fab, V domains shown)
VH: EVQLVESGGGLVLPGGSLRLSCSASGFTFSDFSMHWVRQSPGKGLEYVSAITSSGSSTYYPDSVKGRFTISRDNSKNTLYLQMGSLRVEDTAVYWCVKNSDVFRFPHLYFDVWGRGTLVTVSS
VL: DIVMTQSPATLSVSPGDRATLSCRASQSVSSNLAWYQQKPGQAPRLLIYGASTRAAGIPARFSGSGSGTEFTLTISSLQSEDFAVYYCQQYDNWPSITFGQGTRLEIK
B3: VP12E7 Fab (Fab, V domains shown)
VH: QVQLVQSGGGVVQPGESLRLSCSGSGFTFNNYIMHWVRQAPGQGLDYVSGIGSDGRNTNYGDSVKGRFTISRDNSKDTLYLQMTSLRAEDTAFYYCVKGLDVLRFLDLSTPSGERLDAFDIWGQGTMVTVSS
VL: DIVMTQSPSFLSASVGDRVTITCRASQGISNYLAWYQQKPGKAPHLLIYAASTLQSGVPSRFSGSGSGTEFTLTISSLQPEDFATYYCQQLNSYPLFTFGPGTKVDIE
B4: C13B8 Fab (Fab, V domains shown)
VH: QVQLQESGPGLVQPSQTLTLTCTVSGDSISNEDYHWTWIRQHPGKGLEWMGYLQYSGNTNYNPSLKSRMTISVDTSKNQFSLRLNSVTAADTAVYFCATSIVLTGMSNKIQPFDYWGQGTLVTVSS
VL: SYELTQPPSVSVSPGQMARITCSGEALPKKYAYWYQQKGGQFPVLVIYKDTERPSGIPERFSGSSSGTIVTLTISGVQPEDEADYYCLSADTSGTWVFGGGTKLTVL
B5: C13C9 Fab (Fab, V domains shown)
VH: EVQLVQSGPEVKKPGTSARVSCKASGFTSKNTALQWVRQARGQPLEWMGWIDISNYITNYAQKFRGRLTITWDLSASMAYMELSSLRSEDTAVYYCAAVGKDDDVLTGGNKYFDHWGQGTLVTVSS
VL: SYELTQPPSVSVSPGQTARITCSGDALPKKYAYWYQQKSGQAPVLVIHEDDKRPSGIPGRFSASSSGTTATLTISGAQVEDEADYYCYSTDTNDNHAFGSGTKLTVL
B6: C77G12 mAb (antibody, V domains shown)
VH: B1 VH
VL: B1 VL
notes: also called Group 3 mAb; fusion peptide-specific mAb
B7: VN01H1 mAb (antibody, V domains shown)
VH: B2 VH
VL: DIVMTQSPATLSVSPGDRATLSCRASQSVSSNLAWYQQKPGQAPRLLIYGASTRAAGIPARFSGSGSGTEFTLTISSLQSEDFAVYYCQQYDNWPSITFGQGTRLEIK
notes: as for B6
B8: VP12E7 mAb (antibody, V domains shown)
VH: B3 VH
VL: B3 VL
notes: as for B6
B9: C13B8 mAb (antibody, V domains shown)
VH: B4 VH
VL: B4 VL
notes: as for B6
B10: C13C9 mAb (antibody, V domains shown)
VH: B5 VH
VL: B5 VL
notes: as for B6

The target in the first assay is T1, SARS-CoV-2 S fusion peptide K811[…]825. The assay is described as follows: crystal structure; Fab in complex with the fusion peptide K811-K825. As to conditions: both partners purified.
Turning to B1, the binding result was “binds”.
Consider B2, for which the binding result is “binds”.
For B3, the binding result is recorded as “binds”.
Consider B4, for which the binding result was “binds”.
Same read-out and setting: with B5 the entry was “binds”.

For another assay, the target named is T3, MERS-CoV S on HEK293T cells (MERS-CoV, strain ; entry is …, UniProt K9N5Q8).
T3 construct: source: HEK293T, transfected, on the cell surface
The assay is described as follows: flow cytometry on cells. The conditions noted are these: one partner purified.
For B6, the binding result is recorded as “binds”.
The same measure, in the same setting: under B7 stands “binds”; under B8, “binds”.
Same read-out and setting: under B9 stands “binds”.
B10: the binding result was “binds”.

In another assay the target is T4, SARS-CoV S on HEK293T cells (Severe acute respiratory syndrome …, UniProt P59594).
T4 construct: source: HEK293T, transfected, on the cell surface
The assay is described as follows: flow cytometry on cells. The conditions noted are these: one partner purified. Background: A flow cytometer gives signals particle by particle.
As to B6, the binding result is given as “binds”.
In the case of B7, the binding result is “binds”.
For B8, the binding result is “binds”.
As to B9, the binding result is “binds”.
For B10, the binding result was “binds”.

The target in a further assay is T5, full length SARS-CoV-2 S Wuhan-Hu-1 on HEK293T cells (Severe acute respiratory syndrome …, UniProt P0DTC2).
T5 construct: source: HEK293T, transiently transfected, on the cell surface
The assay is described as follows: flow cytometry on cells. The conditions noted are these: one partner purified.
For the molecule B6, the binding result is given as “binds”.
Consider B7, for which the binding result is “binds”.
Take B8: the binding result is recorded as “binds”.
In the case of B9, the binding result is recorded as “binds”.
B10: the binding result was “binds”.

The target of a further assay is T6, 229E S on HEK293T cells (Human coronavirus 229E, GenBank …).
T6 construct: source: HEK293T, transiently transfected, on the cell surface
T6 sequence (P15423 16-1173): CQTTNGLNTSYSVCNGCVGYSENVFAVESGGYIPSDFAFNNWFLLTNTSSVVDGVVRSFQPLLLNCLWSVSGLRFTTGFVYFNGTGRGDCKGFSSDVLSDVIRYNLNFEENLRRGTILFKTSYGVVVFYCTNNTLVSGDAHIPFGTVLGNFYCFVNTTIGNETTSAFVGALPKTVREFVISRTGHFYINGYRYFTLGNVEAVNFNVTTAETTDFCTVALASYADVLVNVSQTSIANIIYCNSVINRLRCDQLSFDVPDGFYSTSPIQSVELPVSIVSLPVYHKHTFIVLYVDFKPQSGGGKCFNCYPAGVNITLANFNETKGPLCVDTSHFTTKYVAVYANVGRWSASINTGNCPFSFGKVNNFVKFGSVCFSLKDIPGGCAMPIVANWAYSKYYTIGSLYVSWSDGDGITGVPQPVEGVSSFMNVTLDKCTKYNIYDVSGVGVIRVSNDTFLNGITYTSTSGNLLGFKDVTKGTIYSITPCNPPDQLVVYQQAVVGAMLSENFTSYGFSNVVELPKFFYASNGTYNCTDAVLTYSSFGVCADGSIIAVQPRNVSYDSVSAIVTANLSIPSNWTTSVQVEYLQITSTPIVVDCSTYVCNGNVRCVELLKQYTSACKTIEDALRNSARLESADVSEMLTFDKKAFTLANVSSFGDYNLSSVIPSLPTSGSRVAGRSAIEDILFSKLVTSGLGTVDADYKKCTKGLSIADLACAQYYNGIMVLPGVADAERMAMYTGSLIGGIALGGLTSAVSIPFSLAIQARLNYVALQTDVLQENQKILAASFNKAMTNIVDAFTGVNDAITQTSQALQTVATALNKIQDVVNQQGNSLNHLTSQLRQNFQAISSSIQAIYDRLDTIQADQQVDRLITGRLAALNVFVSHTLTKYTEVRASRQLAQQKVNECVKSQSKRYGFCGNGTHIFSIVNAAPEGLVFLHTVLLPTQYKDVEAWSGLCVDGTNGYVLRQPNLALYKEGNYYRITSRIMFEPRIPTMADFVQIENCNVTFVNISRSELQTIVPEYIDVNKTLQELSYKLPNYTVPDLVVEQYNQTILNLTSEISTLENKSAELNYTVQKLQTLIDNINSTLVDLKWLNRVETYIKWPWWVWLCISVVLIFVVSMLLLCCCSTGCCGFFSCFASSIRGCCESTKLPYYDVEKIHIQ
The assay is described as follows: flow cytometry on cells. As to conditions: one partner purified.
Consider B6, for which the binding result is given as “binds”.
Consider B7, for which the binding result is reported as “binds”.
Regarding B8, the binding result is on record as “binds”.
Consider B9, for which the binding result is “binds”.
As for B10, the binding result was “binds”.

For a further assay, the target named is NL63 S on HEK293T cells (Human coronavirus NL63, GenBank …, UniProt A0A1L2YVI8). The assay is described as follows: flow cytometry on cells. As to conditions: one partner purified.
Chain of NL63 S on HEK293T cells (Q6Q1S2 19-1356): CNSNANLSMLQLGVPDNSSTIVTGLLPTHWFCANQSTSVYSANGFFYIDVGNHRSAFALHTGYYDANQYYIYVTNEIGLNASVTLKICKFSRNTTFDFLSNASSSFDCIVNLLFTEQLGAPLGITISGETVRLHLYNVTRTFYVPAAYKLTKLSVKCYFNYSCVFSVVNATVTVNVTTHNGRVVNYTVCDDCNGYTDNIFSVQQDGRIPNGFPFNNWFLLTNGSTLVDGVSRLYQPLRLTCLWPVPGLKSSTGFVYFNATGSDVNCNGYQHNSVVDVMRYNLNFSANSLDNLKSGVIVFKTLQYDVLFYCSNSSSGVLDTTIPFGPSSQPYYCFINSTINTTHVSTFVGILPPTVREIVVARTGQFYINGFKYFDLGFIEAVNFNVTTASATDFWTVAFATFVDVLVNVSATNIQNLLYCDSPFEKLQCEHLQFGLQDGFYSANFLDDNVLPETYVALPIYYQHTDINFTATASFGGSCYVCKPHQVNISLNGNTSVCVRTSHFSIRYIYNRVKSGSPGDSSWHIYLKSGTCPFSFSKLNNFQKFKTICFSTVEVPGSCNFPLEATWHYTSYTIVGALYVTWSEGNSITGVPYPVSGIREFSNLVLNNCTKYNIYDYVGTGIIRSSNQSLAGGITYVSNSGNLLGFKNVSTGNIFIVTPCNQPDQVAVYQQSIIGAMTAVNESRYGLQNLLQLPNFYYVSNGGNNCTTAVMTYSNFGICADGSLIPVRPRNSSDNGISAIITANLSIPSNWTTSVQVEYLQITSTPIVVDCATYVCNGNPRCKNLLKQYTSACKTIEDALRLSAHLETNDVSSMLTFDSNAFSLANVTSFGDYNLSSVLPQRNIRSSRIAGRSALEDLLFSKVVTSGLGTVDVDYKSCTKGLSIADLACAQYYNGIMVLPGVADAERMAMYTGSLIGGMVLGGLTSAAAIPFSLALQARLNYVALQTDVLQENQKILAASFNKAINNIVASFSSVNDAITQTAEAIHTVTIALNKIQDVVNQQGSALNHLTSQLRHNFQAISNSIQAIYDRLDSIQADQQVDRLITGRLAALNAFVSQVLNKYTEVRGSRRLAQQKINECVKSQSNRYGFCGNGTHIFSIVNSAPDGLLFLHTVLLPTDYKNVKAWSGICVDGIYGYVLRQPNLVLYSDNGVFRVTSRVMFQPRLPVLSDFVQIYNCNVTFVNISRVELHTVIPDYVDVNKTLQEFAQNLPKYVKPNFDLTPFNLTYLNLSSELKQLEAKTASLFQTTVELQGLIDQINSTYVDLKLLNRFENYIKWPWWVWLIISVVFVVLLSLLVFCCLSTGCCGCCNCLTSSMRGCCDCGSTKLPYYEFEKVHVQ
B6: the binding result is “binds”.
Still for that read-out and setting: with B7 the entry was “binds”.
Turning to B8, the binding result is recorded as “binds”.
Still for that read-out and setting: under B9 stands “binds”.
For the molecule B10, the binding result is “binds”.

Another assay concerns the target T1, SARS-CoV-2 S fusion peptide K811[…]825. The assay is described as follows: ELISA. As to conditions: both partners purified.
Take B6: the binding result was “binds”.
On the same count and under the same terms, under B7 stands “binds”; under B8, “binds”; under B9, “binds”.
With B10, the binding result is “binds”.

The next assay has as its target NL63 S protein (commercially available, recombinant) (human coronavirus NL63, strain of …, UniProt A0A1L2YVI8). Briefly: ELISA; mAbs titrated on commercially available hCoV S proteins; EC50 (Fig. 1E). The conditions noted are these: both partners purified.
As to B6, the binding result is listed as “binds”.
On to B7, for which the binding result was “binds”.
With B8, the binding result was “binds”.
Turning to B9, the binding result is recorded as “binds”.
The same measure, in the same setting: under B10 stands “binds”.

The target of another assay is OC43 S protein (commercially available, recombinant) (human coronavirus OC43, strain not …, UniProt P36334). The assay is described as above. As to conditions: both partners purified.
Chain of OC43 S protein (commercially available, recombinant) (P36334 14-1353): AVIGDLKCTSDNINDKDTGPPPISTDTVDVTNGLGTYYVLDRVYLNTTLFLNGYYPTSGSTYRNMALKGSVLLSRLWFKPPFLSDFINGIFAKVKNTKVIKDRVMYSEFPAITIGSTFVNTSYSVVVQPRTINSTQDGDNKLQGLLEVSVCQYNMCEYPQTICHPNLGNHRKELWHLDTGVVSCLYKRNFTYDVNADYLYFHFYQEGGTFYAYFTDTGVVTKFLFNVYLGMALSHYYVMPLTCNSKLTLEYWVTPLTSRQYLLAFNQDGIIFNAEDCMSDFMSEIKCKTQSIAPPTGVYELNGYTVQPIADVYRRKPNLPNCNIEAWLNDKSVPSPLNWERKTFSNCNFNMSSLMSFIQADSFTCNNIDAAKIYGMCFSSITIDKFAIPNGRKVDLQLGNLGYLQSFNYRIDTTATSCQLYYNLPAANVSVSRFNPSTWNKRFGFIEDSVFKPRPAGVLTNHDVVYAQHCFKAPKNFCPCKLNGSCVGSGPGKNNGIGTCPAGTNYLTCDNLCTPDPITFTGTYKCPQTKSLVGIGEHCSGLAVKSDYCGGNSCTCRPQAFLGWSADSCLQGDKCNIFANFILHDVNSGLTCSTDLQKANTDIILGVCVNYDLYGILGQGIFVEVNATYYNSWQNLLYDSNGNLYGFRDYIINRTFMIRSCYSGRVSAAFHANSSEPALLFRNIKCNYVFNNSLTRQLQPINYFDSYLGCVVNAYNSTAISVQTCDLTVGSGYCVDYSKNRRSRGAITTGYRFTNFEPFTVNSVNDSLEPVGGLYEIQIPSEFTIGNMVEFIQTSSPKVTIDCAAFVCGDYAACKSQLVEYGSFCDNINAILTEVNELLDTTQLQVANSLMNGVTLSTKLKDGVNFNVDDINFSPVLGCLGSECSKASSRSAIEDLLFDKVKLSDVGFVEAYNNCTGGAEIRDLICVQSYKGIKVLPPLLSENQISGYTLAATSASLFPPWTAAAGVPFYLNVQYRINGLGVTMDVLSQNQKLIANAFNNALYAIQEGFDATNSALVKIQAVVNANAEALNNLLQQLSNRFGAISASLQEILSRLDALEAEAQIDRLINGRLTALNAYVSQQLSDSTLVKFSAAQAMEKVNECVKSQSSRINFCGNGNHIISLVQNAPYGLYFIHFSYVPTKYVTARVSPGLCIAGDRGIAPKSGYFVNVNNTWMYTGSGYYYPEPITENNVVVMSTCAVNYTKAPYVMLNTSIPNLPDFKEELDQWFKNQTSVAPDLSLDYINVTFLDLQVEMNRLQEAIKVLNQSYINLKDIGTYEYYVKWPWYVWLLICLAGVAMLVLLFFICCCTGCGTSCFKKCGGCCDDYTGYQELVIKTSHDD
Regarding B6, the binding result is reported as “binds”.
For the molecule B7, the binding result was “binds”.
On to B8, for which the binding result is reported as “binds”.
Same read-out and setting: under B9 stands “binds”; under B10, “binds”.

A further assay concerns the target SARS-CoV-2 S protein (commercially available, recombinant) (SARS-CoV-2 (Wuhan-Hu-1 assumed), UniProt P0DTC2). The assay is described as above. As to conditions: both partners purified.
In the case of B6, the binding result is “binds”.
Same read-out and setting: under B7 stands “binds”; under B8, “binds”.
Turning to B9, the binding result was “binds”.
With B10, the binding result is listed as “binds”.

The target in a further assay is HKU1 S protein (commercially available, recombinant) (human coronavirus HKU1, isolate not …, UniProt Q5MQD0). The description is as above. The conditions noted are these: both partners purified.
In the case of B6, the binding result was “binds”.
For B7, the binding result was “binds”.
Same read-out and setting: under B8 stands “binds”; under B9, “binds”; under B10, “binds”.

A further assay concerns the target T2, 229E S protein (commercially available, …). The assay is described as above. As to conditions: both partners purified.
As for B6, the binding result is given as “binds”.
Take B7: the binding result is listed as “binds”.
Take B8: the binding result is “binds”.
As to B9, the binding result is listed as “binds”.
For the molecule B10, the binding result is on record as “binds”.
